In the DeepSol protein solubility set:

Experiment: soluble on expression in E. coli; label from the status in PepcDB or PDB records

| Sequence | soluble on expression in E. coli |
| --- | --- |
| MSVKKLENGQYQVDVSFGFDPITGERIRTRPVASTRKEALELEAKLRREFQEERARKSRSVSFPTLISIYLASCEIDSKPNYYQNQKYIINKHISDYFLKSDIQKITHREITDFRKHLMETGLSNKSVNNIMTSLSKIFDTAVHEEILKRNPCDNVKRLPLTRKKMKFWRPEEFKKFISLIPQDQLLFKTFYTVAFLTGLRCGEMLALQWKDIDKILLEIDVHKSCTWLDGQFVVTTPKTKNSIRRVSINKKLLKLLERWKEAQEELFNELGIRHSHDTYIFQYKDTPSRKDIFSRKIKYFCKDSDLTPIRLHDFRHSHVALLIHQGEDYITIKERLGHGSVKTTIDVYGHLYPNKQKEMADKLDDLL | not soluble |
| MSKQTAIRLPDETYERLKALSERTGRTSAYYIREAIEKHIEDMEDLYLAEEATRRIQRGESKIISAEEFWRDLDN | not soluble |
| MAHHHHHHMVNRSTRLQRGPLKKKTTAVAARTSSHAEQPCADGPAKTSSPQTNSIKNVEMTVGVHASPAVAVGDTPQGKLRLRRRAKKDRPLVAAKTDMKSTVRNRKRGRARGSQPGRGSTATTIVHDEQRVTRRPAGGNRQRNQHRQLAEKLVAREEHQSRKKAAEKRMETAKAELALFDQVMQIPSFEENPFAAIEGHLNGTMAFLQPQTPDVGRRKLEE | not soluble |
| MGSDKIHHHHHHMKLLILGNHTCGNRGDSAIMRGLLDAIRQQAPEAEMDVMSRFPVSSAWLQGRPIIADPLYQLSQKQQAAAGLNGRVKKVLRRRFQHKILLSKVAQEGSLRNFAIAPEFAEFAQFIAQYDAVIQVGGSNYVDLYGLTHFEYPLCAFMANKPIYMVGHSVGPFQNPDFNQLANYVFGRTSALILRETVSRDLMTAAQIDTRKVEQGVDTAWLVERRHDEFVASYAVQHWLDVTARRKTVAITLRDLEPFDKRLGTTQQAYEQAFAQVVNRLIADGYQVLALSTCTSIDRYNRDDRMVALRMAKYVNDSENFHIAMDELNDVEIGKILASCVLTIGTRLHSAIISMNFGTPAIAINYEHKSAGIMQQLGLAELAIDIRHLLNGSLQSVVADTLNQLPALKAKVANAVTEERAKGFTMIKSVLDRIREAQ | not soluble |
| SNANAEPAVKAESAGKSVAASLKARLEKTYSAQDLKVLSVSETPVKGIYEVVVSGRQIIYTDAEGGYMFVGELINIDTRKNLTEERAADLNKIDFASLPLDKAIKEVRGNGKLKVAVFSDPDCPFCKRLEHEFEK | not soluble |
| MSLKPIFGRGPSLQLRLFFAVMLSASLMLADSRLGAFSHVRFLLNSLVAPIQYAADLPRVLFDDFYDSISSHQQLRENNQLLKREVLTLKSNLLLLEQYKEENQRLRKLLGSSFLRDEKKVVTEVMAVDTSPYRHQVVIDKGRVDGVYEGQPIINEKGIVGQVTFVAAHNSRVLLLIDPNTAIPVQNIRNDIRVIASGNGQTDQIQLEHIPTSTDIEVGDMLVTSGLGGVYPEGYPVAIVSQVDKDTRREFASIKADPVVEFDRLRYLLLIWPNEDRLQKVMQADPQVLLEEEANAQEGHHHHHH | soluble |
| MDTIAFAYMGGKEYEWLFFEVYDRVRRFYRDVRLPINIVYAGKIILPPGTLIRVETASGFVNMYSFEAVVEALYGKLVEMRDDVNDDSITKIFGITTFPIGSRDRYFDIYKKYLGIQVNVGDYHVLALSIKPFFTENKYLFIERVFKGVLHEIGHLYGLSHCHEDCVMNPPKDIKDWDLRTPTYCNTCLRKLKNKEELMPKLQLLEHHHHHH | soluble |
| MPAKPQLISPAGDWTSMRAALDAGADAVYFGAEGFNMRAASKGFSPGDFGGIARLCRSHGAKAYLALNSVIYDAELDEVDRTAAAAKAAGLDAVICWDLAVIEACRRHEMPIHLSTQASVSNINALRFYASLGARMIVLARELTLEQTAAITKCIAAEKLPVTVESFVHGAMCVAISGRCFLSQELFGRSANRGECVQPCRRSYRIADVEEGFELELGSNYVMSPKDLCALPFLDKLFDAGIGAFKIEGRNRSPEYVATTTAAYRKAIDFIAAHRNDKDFDEAYRSLTDRLQNDLVRVYNRGFSEGFFFGKPADAWTKHSGSAATETKSYVGVVRKYFPKAGVAEILVHAPSVDSGVRLSIQGPATGLVTVPDAELHLDGQLANRIEQGQIFTVRCDRVRKNDKVYVLLKN | not soluble |
| MTKYIFVTGGVVSSLGKGITAASLGRLLKNRGLNVTIQKFDPYINVDPGTMSPYQHGEVFVTDDGAETDLDLGHYERFIDINLNKYSNVTTGKIYSAVIRKERRGDYLGGTVQVIPHITNEIKERVFRAGRETNADVVITEIGGTVGDIESLPFLEAIRQIKSDVGRENVMYIHCTLVPYIKAAGEMKTKPTQHSVKELRSLGIQPNVIVVRTEMPMPQEMKEKIALFCDIDPKAVIEARDADTLYAVPLMLQEQKLDQIVCEHLRLNCREADMTEWKALVEKVRNLSKTTKIALVGKYVELPDAYISVVEALRHAGYAFDTDIDIQWINAEHVTRDNVADLLKDADGILVPGGFGDRGVEGKIEAIRYAREQRVPFLGICLGMQLASIEFARHVVGLSGAHSSEFDPNTPHPIIDLLPEQKDVEDLGGTLRLGLYPCKLQEGTLAYAAYGDEVIYERHRHRYEFNNQYRSIMEEHGFVFSGTSPDGRLVEVIELKDHPWFVAAQFHPEFTSRPTRPQPLFREFVRASLKE | not soluble |
| MEVEVGQIVNTHGIKGEVKVKSNSDFTETRFQPGEQLLVKHNNTEIVYTVASYRIHKGFHMLRFEGINNINEIEHLKGDYIYQERDHQDIELGEHEYYYSDIIGCTVFKDDDTPIGRVINIFETGANDVWVVKGEKEYLIPYIEDVVKDIDIETKTIKITPMEGLLDLEHHHHHH | soluble |
| MMIFEKIHTVPTSEELTNKAFKRAARAMSGKTIDGRDSRFKANESMLLTAANIFTDNLANIVRRFPSFEQLPRFYYELTDILVGVEKLKMSLASVDWASRKIHEVARSYVGKIRESDIPEPVRKEAFGRLASIINSINKDLLFLNEARNILRKLPDVQDEPTIVIAGYPNVGKSSFVSKITGATPEIAPYPFTTKGVTIGHFTRDGVRYQVMDTPGLLDRPMAERNDIERQAITAIHYLDAVVMVVIDPSESCGYELQDQRRLLAEIRENFNLPLLVVANKADRPEFMKMDEVELNMSTITGEGIEQVMDRLLEMIEEKRLRSLEEAPSEESDDESALLEHHHHHH | soluble |
| MSLQRFKFLMYQVVASDLDGTLLSPDHTLSPYAKETLKLLTARGINFVFATGRHHVDVGQIRDNLEIKSYMITSNGARVHDLDGNLIFAHNLDRDIASDLFGVVNDNPEIITNVYRDDEWFMNRHRPEEMRFFKEAVFNYALYEPGLLEPEGVSKVFFTCDSHEKLLPLEQAINARWGDRVNVSFSTLTCLEVMAGGVSKGHALEAVAKKLGYSLQDCIAFGDGMNDAEMLSMAGKGCIMGSAHQRLKDLHPELEVIGTNAEDAVPHYLRKLYLSEGHHHHHH | soluble |
| RRAKALLDFERHDDDELGFRKNDIITIISQKDEHCWVGELNGLRGWFPAKFVEVLDERSKEYSIA | soluble |
| MLNTRLELNKRIDNNVQLKYTEQKIFGNSKEIIGCEVLLDFEYAKKNQVAWKYLTMMHNGASLLSLIVYVNESILRYVKSNINKVFINVERISLCNSRHVGLITRLNEKMSEHNISLIVEITERGSDIPFVEIKNGLKSLQCSHVKLAMDDYDYKKTDFRSDEIFDYDYIKVDFPKTKAELDSFNNFVFLTSMFTCLIVERIENENDFFSVKNNRIWGYQGFAFCQKESFEGWSDNTSDNNVF | not soluble |
| MMHTWFECKIRYEKVMENGMNKKVTEPYLVDALSFTEAEARIIEEITPYISGEFTVSDIKRANYSELFPSEEDAADRWFKCKLFFITLDEKSGAEKKTSTTVLVQASDLRDAVKKLDEGMKGTMADYVIASVAETAIMDVYPYEAEPDVKPEFPDAGKTE | not soluble |
| DIVMTQTPKFLLVSAGDKVTITCKASQSVSNDLTWYQQKPGQSPKLLIYYASNRYTGVPDRFTGSGYGTDFTFTISTVQAEDLAVYFCQQDYGSPPTFGGGTKVEIKRTVAAPSVFIFPPSDEQLKSGTASVVCLLNNFYPREAKVQWKVDNALQSGNSQESVTEQDSKDSTYSLSSTLTLSKADYEKHKVYACEVTHQGLSSPVTKSFNRGEC | soluble |
| MTFQETISAYIQERYQITPDFPFKKHPDYLVFRHPRNAKWFALIMPLDAQLLGATENKQLTILTVKLAPELIALLKNQPGYFPAYHMNKEHWLSLSEEIPLSQVFSFIDESYQRSY | not soluble |
| MRSQPTVSVIVPARNEAGNIAAAVERLPELGAETELIFVEGHSRDQTWETIEQTVAEYQGPLKLLACRQTGKGKADAVRLGFDKASGDILMILDADLTVQPEDLGHFYRAIASGRGEFINGSRLVYPRSRLAMPGLNTLANRTFALIFSFLLGQPLKDTLCGTKVLWKTDYDRVAAGRKYFGDFDPFGDFDLLFGAAKLGLEIVEVPVRYQERSYGSSNIAHVREGLILARMCLYAAGKLKFPLEHHHHHH | not soluble |
| MSLATIVVKTTPDNEIAYWPTGKEHLFCIALGTKAQAGPLGEFVHQFRTDRPGMVQVWTQGSDSFTLYLTPGSKDTITVTKDTLIISGTNSAYNRCLKTVNDYQKYSDKLVYMQPHELRGITSLEQYHRLADARMRQALDAVNASGLNEEFLAEQRAHIDYIRRSIFIHIARQLSRKEKLPEDWQRELTEVINSSVNGDYLRSYRGIGFFVNDLVMMQFTNLENGDLKEIKEYASFLFDRYRKFFTGDNLQYMQAQLIYEDEFQGSKTPSIPQLYETYRAEFPNSPFLNVLEPGVKENLRFQNSRITDKDYHILTCDSTITSLEDAVKPFKGKVVYIDVWATWCGPCLKEFQYLPTLKEKAHNMDVVYLYISIDRPEERKKWEKTIAYHQLKGYHLLVNEKLGKSLYTELGNERQILSIPCFVIIDKTGKIVIRHAAAPSEPEKVIEQLSTYYNKEGHHHHHH | soluble |
| EVQLLESGGGLVQPGGSLRLSCAASGFTFEEYAMLWVRQAPGKGLEWVSGINARGYTTYYADSVKGRFTISRDNSKNTLYLQMNSLRTEDTAVYYCAKPWYPFMASKGSEFDYWGQGTLVTVSSAAALEIKRASQPELAPEDPEDVEHHHHHH | soluble |
| MSAKIKAWSSNAEKLNSKRKKMEIREELFPSTTCSSSPQANQEISSEDRNSHHPDIASSSSATTCRSSNCFNMDEGILTRDVEMDFSDEIPTFSHNRFSNPVFPPTPSRNSFSTPRVRIISNVEQIPQIKMLRLTIERLKNEKMKYQKKYKSGMAVDFLSKCGLSLSQMEKIKNYLTNSIGYDLLPLVKNTRDLSIQLSMISSFKVSTSFDNKGKVITIVQCMKIAEVLAYRIELLCNSNQFVDDGYTKGVIKIGVVGDAGGGSTKHVMVIAVYDGSDNYSCLKKFIPDVLEQLGKLTKIRYLDKGVQKTAKIVQIATGDCKFQFDILGHQGHSSHNFCFKCFAQNPRGAEERMKIKDMNVDETFHPRTIDLYKACCTPLLPHVAIMFYLIPLLHIIMGIFDKYIFNPLWKYSVTLDNTTCFPILKTRKATLKNAVNLIKSAEEKYQAATGKMKLESHAELKALQSEKLLLDTIVNGTPGGTLEKMEQCWAKFGADKQAWFQSFCGNHLKLLLTPAIVEETFNIFGPNLCPMLLGLKSAMGKLSTIMSLSGNKFLNDSDVLILQNSIRGFVEDLKVAVPEETIILKLHLVVYHAPQMAKDVRNIGRITEPGVESVHAIFNALERRFCNYRDKKRRYIHVLRELMCRNIMNDMTMNTSIPGLSIVPKDATVLPISSQNDLRDPKVVIRDVTAAQKRKNLAKKKINFSSKKRLPQSTKSRNAVPDFSQNVQTSIAFGGNSTKIGFRGLPSNALSRPNPMAITQTCSTSQPITRSHPLVAPPVSYQLPKCSNSLAEKIRASCGQARRSAAESSSTESHVDTNSKKKVYRLKFVQKSREIPKK | not soluble |
